This note sets out measurements from publication PMC11140114.

The target in the experiment is recombinant human dynamin-related protein 1 (Drp1), isoform 1 (human) (UniProt O00429).
recombinant human dynamin-related protein 1 (Drp1), isoform 1 (human), sequence (O00429 whole entry, canonical isoform): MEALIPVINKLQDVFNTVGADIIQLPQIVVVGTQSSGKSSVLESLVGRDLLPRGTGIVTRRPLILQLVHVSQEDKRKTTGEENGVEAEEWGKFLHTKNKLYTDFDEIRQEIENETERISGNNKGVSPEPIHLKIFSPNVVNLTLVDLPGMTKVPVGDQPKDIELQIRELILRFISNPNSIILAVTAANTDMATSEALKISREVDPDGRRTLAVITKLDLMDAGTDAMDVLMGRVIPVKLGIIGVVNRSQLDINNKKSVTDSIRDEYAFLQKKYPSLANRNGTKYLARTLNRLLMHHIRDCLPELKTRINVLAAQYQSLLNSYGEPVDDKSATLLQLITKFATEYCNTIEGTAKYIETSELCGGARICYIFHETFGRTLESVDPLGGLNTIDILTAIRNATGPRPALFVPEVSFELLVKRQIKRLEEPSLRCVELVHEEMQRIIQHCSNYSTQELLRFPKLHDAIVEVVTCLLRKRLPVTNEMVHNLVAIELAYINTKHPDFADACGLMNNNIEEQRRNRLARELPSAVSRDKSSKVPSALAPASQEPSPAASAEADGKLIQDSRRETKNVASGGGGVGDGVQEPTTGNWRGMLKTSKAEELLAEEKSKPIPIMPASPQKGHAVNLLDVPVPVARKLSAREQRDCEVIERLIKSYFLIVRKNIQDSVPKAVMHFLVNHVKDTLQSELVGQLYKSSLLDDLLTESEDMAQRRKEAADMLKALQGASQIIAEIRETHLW

B1: Drp1-specific nanobody D63 (VHH)
VHH: QVQLVESGGDLVQPGGSLKLSCAVSGVSDSLSSFYLMAWHRQAPGKQREMIADIVSGKATYADSVKGRFTISRDNAENTAYLQMNSLKPEDTAVYYCNVLIQNRSTFQSYWGQGTQVTVSS
B1: the GTPase rate of 100 nM Drp1 with 0, 10, 100 or 1,000 nM Nb (continuous regenerative assay, 37°C); factor of increase after addition of a 10-fold molar excess of D63 amounted to 1.7 fold.
